Test results taken from the supplement of paper PMC9112550, “Optimization of the antimicrobial peptide Bac7 by deep mutational scanning” (BMC Biology, 2022).

Tested on: Escherichia coli TOP10
Experiment: shrunken log2 fold change of peptide-encoding DNA abundance (4.5 h post-induction vs induction); higher = less antimicrobial activity (less host growth inhibition)
Conditions: time post-induction: 4.5 h; library: site-saturation at positions 5, 18, 19, 20
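Note: peptides expressed intracellularly from a pBAD plasmid library in pooled LB shake-flask culture, induced with 0.3% L-arabinose, DNA abundance read by NGS, three biological replicates, DESeq2 with apeglm shrinkage.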

| Sequence | shrunken log2 fold change |
| --- | --- |
| RRIRIRPPRLPRPRPRPVQEPRP | 0.00511 |
| RRIRERPPRLPRPRPRPSWMPRP | -0.416 |
| RRIRCRPPRLPRPRPRPTDWPRP | 0.169 |
| RRIRDRPPRLPRPRPRPNTQPRP | 0.0704 |
| RRIRGRPPRLPRPRPRPVFDPRP | 0.39 |
| RRIRGRPPRLPRPRPRPQRKPRP | 0.471 |
| RRIRRRPPRLPRPRPRPKLGPRP | 0.141 |
| RRIRNRPPRLPRPRPRPDLWPRP | 0.551 |
| RRIRDRPPRLPRPRPRPRHFPRP | -0.0107 |
| RRIRMRPPRLPRPRPRPCESPRP | -0.0088 |
| RRIRMRPPRLPRPRPRPWWQPRP | 0.183 |
| RRIRIRPPRLPRPRPRPQLTPRP | -0.28 |
| RRIRIRPPRLPRPRPRPYCEPRP | -0.21 |
| RRIRRRPPRLPRPRPRPQKTPRP | -0.019 |
| RRIRCRPPRLPRPRPRPETSPRP | 0.0533 |
| RRIRWRPPRLPRPRPRPCASPRP | -0.0152 |
| RRIRIRPPRLPRPRPRPLWKPRP | 0.145 |
| RRIRARPPRLPRPRPRPLGKPRP | 0.237 |
| RRIRARPPRLPRPRPRPCNWPRP | -0.0619 |
| RRIRPRPPRLPRPRPRPHWKPRP | -0.131 |
| RRIRWRPPRLPRPRPRPLVWPRP | 0.426 |
| RRIRPRPPRLPRPRPRPACDPRP | 0.00904 |
| RRIRSRPPRLPRPRPRPKNAPRP | 0.196 |
| RRIRLRPPRLPRPRPRPCRPPRP | -0.0863 |
| RRIRHRPPRLPRPRPRPSHPPRP | 0.0558 |

| Sequence | shrunken log2 fold change |
| --- | --- |
| RRIRERPPRLPRPRPRPCALPRP | -0.319 |
| RRIRTRPPRLPRPRPRPNVTPRP | -0.182 |
| RRIRQRPPRLPRPRPRPWDGPRP | 0.199 |
| RRIRLRPPRLPRPRPRPELFPRP | 0.303 |
| RRIRGRPPRLPRPRPRPTCRPRP | 0.825 |
| RRIRDRPPRLPRPRPRPDTGPRP | 0.018 |
| RRIRNRPPRLPRPRPRPSIVPRP | -0.335 |
| RRIRVRPPRLPRPRPRPILRPRP | 0.0599 |
| RRIRNRPPRLPRPRPRPDAGPRP | 0.391 |
| RRIRGRPPRLPRPRPRPFSPPRP | 0.0723 |
| RRIRRRPPRLPRPRPRPPEIPRP | -0.17 |
| RRIRGRPPRLPRPRPRPWDRPRP | -0.141 |
| RRIRIRPPRLPRPRPRPSYYPRP | -1.34 |
| RRIRRRPPRLPRPRPRPCMLPRP | -0.151 |
| RRIRCRPPRLPRPRPRPQMWPRP | 0.0606 |
| RRIRSRPPRLPRPRPRPAHAPRP | 0.121 |
| RRIRLRPPRLPRPRPRPMLDPRP | 0.014 |
| RRIRARPPRLPRPRPRPRWKPRP | 0.462 |
| RRIRGRPPRLPRPRPRPEFPPRP | 0.482 |
| RRIRYRPPRLPRPRPRPRFTPRP | -0.17 |
| RRIRCRPPRLPRPRPRPVNVPRP | -0.249 |
| RRIRRRPPRLPRPRPRPHMGPRP | -0.15 |
| RRIRRRPPRLPRPRPRPWHVPRP | -0.135 |
| RRIRIRPPRLPRPRPRPEAKPRP | 0.0733 |
| RRIRPRPPRLPRPRPRPDWIPRP | -0.444 |

| Sequence | shrunken log2 fold change |
| --- | --- |
| RRIRFRPPRLPRPRPRPWLSPRP | -0.129 |
| RRIRYRPPRLPRPRPRPGAQPRP | -0.0279 |
| RRIRGRPPRLPRPRPRPIAGPRP | 0.701 |
| RRIRRRPPRLPRPRPRPCILPRP | -0.208 |
| RRIRKRPPRLPRPRPRPDNNPRP | 0.0165 |
| RRIRRRPPRLPRPRPRPAQYPRP | 0.34 |
| RRIRRRPPRLPRPRPRPGAHPRP | 0.45 |
| RRIRYRPPRLPRPRPRPEQSPRP | 0.0157 |
| RRIRDRPPRLPRPRPRPCGWPRP | 0.335 |
| RRIRPRPPRLPRPRPRPRKVPRP | 0.00959 |
| RRIRTRPPRLPRPRPRPAQTPRP | 0.712 |
| RRIRQRPPRLPRPRPRPKCDPRP | 0.151 |
| RRIRHRPPRLPRPRPRPCTEPRP | -0.138 |
| RRIRNRPPRLPRPRPRPPFAPRP | 0.201 |
| RRIRTRPPRLPRPRPRPLSGPRP | -0.0581 |
| RRIRRRPPRLPRPRPRPWRWPRP | 0.14 |
| RRIRVRPPRLPRPRPRPWPEPRP | 0.465 |
| RRIRHRPPRLPRPRPRPYHRPRP | -0.00968 |
| RRIRWRPPRLPRPRPRPIERPRP | 0.0857 |
| RRIRYRPPRLPRPRPRPYLGPRP | -0.261 |
| RRIRYRPPRLPRPRPRPKICPRP | -0.0342 |
| RRIRVRPPRLPRPRPRPHHTPRP | -0.731 |
| RRIRCRPPRLPRPRPRPWYRPRP | -0.705 |
| RRIRCRPPRLPRPRPRPKMYPRP | -0.342 |
| RRIRIRPPRLPRPRPRPTWDPRP | 0.372 |

| Sequence | shrunken log2 fold change |
| --- | --- |
| RRIRPRPPRLPRPRPRPALYPRP | -0.0126 |
| RRIRDRPPRLPRPRPRPHMCPRP | 0.0514 |
| RRIRRRPPRLPRPRPRPIMFPRP | -0.0974 |
| RRIRSRPPRLPRPRPRPRDPPRP | 0.623 |
| RRIRLRPPRLPRPRPRPETMPRP | 0.0125 |
| RRIRMRPPRLPRPRPRPLHDPRP | 0.487 |
| RRIRCRPPRLPRPRPRPGVWPRP | 0.537 |
| RRIRGRPPRLPRPRPRPHMYPRP | -0.0997 |
| RRIRVRPPRLPRPRPRPDGSPRP | -0.0225 |
| RRIRVRPPRLPRPRPRPLITPRP | -0.439 |
| RRIRWRPPRLPRPRPRPHTFPRP | -0.0424 |
| RRIRTRPPRLPRPRPRPGMCPRP | -0.139 |
| RRIRVRPPRLPRPRPRPQIWPRP | -0.192 |
| RRIRTRPPRLPRPRPRPIHMPRP | -0.171 |
| RRIRMRPPRLPRPRPRPWIMPRP | 0.00173 |
| RRIRKRPPRLPRPRPRPIHRPRP | -0.0202 |
| RRIRGRPPRLPRPRPRPVIDPRP | 0.292 |
| RRIRTRPPRLPRPRPRPRWDPRP | 0.0818 |
| RRIRDRPPRLPRPRPRPYLSPRP | -0.102 |
| RRIRIRPPRLPRPRPRPYVYPRP | -0.144 |
| RRIRIRPPRLPRPRPRPWWVPRP | -0.077 |
| RRIRRRPPRLPRPRPRPLCHPRP | 0.182 |
| RRIRWRPPRLPRPRPRPRPWPRP | 0.289 |
| RRIRWRPPRLPRPRPRPNWWPRP | 0.182 |
| RRIRVRPPRLPRPRPRPWHIPRP | -0.127 |

| Sequence | shrunken log2 fold change |
| --- | --- |
| RRIRWRPPRLPRPRPRPTSNPRP | -0.0919 |
| RRIRERPPRLPRPRPRPKLCPRP | 0.000831 |
| RRIRYRPPRLPRPRPRPYMTPRP | -0.271 |
| RRIRSRPPRLPRPRPRPNVQPRP | -0.335 |
| RRIRVRPPRLPRPRPRPEKTPRP | 0.0303 |
| RRIRRRPPRLPRPRPRPYTRPRP | 0.000194 |
| RRIRMRPPRLPRPRPRPGTNPRP | 1.55 |
| RRIRTRPPRLPRPRPRPDVTPRP | -0.06 |
| RRIRSRPPRLPRPRPRPNYYPRP | -0.822 |
| RRIRHRPPRLPRPRPRPHHAPRP | -0.0366 |
| RRIRLRPPRLPRPRPRPMRLPRP | 0.0402 |
| RRIRSRPPRLPRPRPRPAFNPRP | 0.0949 |
| RRIRERPPRLPRPRPRPHLIPRP | -0.207 |
| RRIRDRPPRLPRPRPRPHFHPRP | -0.0477 |
| RRIRERPPRLPRPRPRPWNAPRP | 0.0455 |
| RRIRGRPPRLPRPRPRPLLEPRP | 1.39 |
| RRIRYRPPRLPRPRPRPNAHPRP | -0.395 |
| RRIRQRPPRLPRPRPRPWLIPRP | -0.289 |
| RRIRVRPPRLPRPRPRPLFGPRP | -0.104 |
| RRIRDRPPRLPRPRPRPMQAPRP | -0.00208 |
| RRIRLRPPRLPRPRPRPGVSPRP | -0.161 |
| RRIRARPPRLPRPRPRPDYMPRP | -0.0383 |
| RRIRARPPRLPRPRPRPNDEPRP | 0.361 |
| RRIRGRPPRLPRPRPRPGKWPRP | 0.566 |
| RRIRDRPPRLPRPRPRPWDYPRP | -0.00965 |
